Assay results as given in paper doi:10.1101/2021.06.01.446590 (bioRxiv, 2021).

How the values were obtained:
[1] = target: human parkin, full-length (human, UniProt O60260 1-465); assay: ITC
His6-Smt3-Parkin = His6-Smt3-Parkin (human, UniProt O60260 1-465, RED-tris-NTA dye bound to the His6 tag); assay: MST
Sequence of His6-Smt3-Parkin (O60260 whole entry): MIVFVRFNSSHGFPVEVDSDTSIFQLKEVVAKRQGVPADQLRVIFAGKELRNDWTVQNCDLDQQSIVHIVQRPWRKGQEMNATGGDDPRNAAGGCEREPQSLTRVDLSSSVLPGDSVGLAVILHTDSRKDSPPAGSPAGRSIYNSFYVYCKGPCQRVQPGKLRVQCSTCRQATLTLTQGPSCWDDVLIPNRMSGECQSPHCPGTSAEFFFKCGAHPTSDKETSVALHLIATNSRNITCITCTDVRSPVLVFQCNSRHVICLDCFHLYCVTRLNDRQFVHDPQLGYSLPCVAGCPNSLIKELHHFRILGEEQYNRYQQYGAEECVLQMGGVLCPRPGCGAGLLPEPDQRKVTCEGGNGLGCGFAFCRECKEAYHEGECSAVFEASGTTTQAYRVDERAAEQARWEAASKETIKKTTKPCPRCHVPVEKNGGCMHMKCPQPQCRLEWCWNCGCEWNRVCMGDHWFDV

Sequence of human parkin, full-length (O60260 whole entry): as above

B1: human CISD1 (residues 32-108) (domain or fragment, UniProt Q9NZ45 32-108, looked up)
chain: KRFYVKDHRNKAMINLHIQKDNPKIVHAFDMEDLGDKAVYCRCWRSKKFPFCDGAHTKHNEETGDNVGPLIIKKKET
- Kd [1]: > 100 µM

B2: Miro1^181-579 (soluble construct of Miro1 containing the EF1-EF2-G2 domains) (domain or fragment, human, UniProt Q8IXI2 181-579, looked up)
chain: MKPACIKALTRIFKISDQDNDGTLNDAELNFFQRICFNTPLAPQALEDVKNVVRKHISDGVADSGLTLKGFLFLHTLFIQRGRHETTWTVLRRFGYDDDLDLTPEYLFPLLKIPPDCTTELNHHAYLFLQSTFDKHDLDRDCALSPDELKDLFKVFPYIPWGPDVNNTVCTNERGWITYQGFLSQWTLTTYLDVQRCLEYLGYLGYSILTEQESQASAVTVTRDKKIDLQKKQTQRNVFRCNVIGVKNCGKSGVLQALLGRNLMRQKKIREDHKSYYAINTVYVYGQEKYLLLHDISESEFLTEAEIICDVVCLVYDVSNPKSFEYCARIFKQHFMDSRIPCLIVAAKSDLHEVKQEYSISPTDFCRKHKMPPPQAFTCNTADAPSKDIFVKLTTMAMY
- Kd (His6-Smt3-Parkin): > 100 µM
